# Experimental data from the supplement of paper PMC9170038.
# Tested on: MS2 coat protein
# Assay: apparent KD of MS2 coat protein; designed switch direction (-1 OFF switch, 1 ON switch): -1; higher = weaker reporter binding
# Outline: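 Apparent KD, taken as the median over clusters for each design, was obtained by curve-fitting normalised cluster fluorescence. Designed RNA switches had been transcribed on Illumina chips by stalled E. coli RNA polymerase and titrated with SNAP-549-labelled MS2 coat protein, doubling from 0.7 or 1.5 nM to 3 µM.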
# [1] = Eterna round: R95, input ligand: FMN 200 uM
# [2] = Eterna round: R95, input ligand: microRNA oligo, concentration not stated
# [3] = Eterna round: R95, input ligand: none
# [4] = input ligand: microRNA oligo, concentration not stated
Sequence,apparent KD of MS2 coat protein [2] [nM],apparent KD of MS2 coat protein (input ligand: FMN 200 uM) [nM],apparent KD of MS2 coat protein (input ligand: none) [nM],also measured
"AGUACUAUGCGAGCUGACUUGCGUAGUGCAGCAGGUGUUACAUGAGGAUCACCCAUGUCCUCAUUUGCUCGUCUUAU [Mat - Sensor v3 - Turn-off var 2 - D6] (puzzle: Sensor v3, turn-off variant 2)",193,–,–,apparent KD of MS2 coat protein [1]: 271 nM; apparent KD of MS2 coat protein [3]: 247 nM
"UCUCGCGGGCAAGGAUAUCCUACGUUGUUCUGGCCCGUGCAUGUUACAUGAGGAUCACCCAUGUGGGAGAAGGUGCGCCAGGGC [Design 37] (Eterna round: R96, puzzle: Exclusion NG 2)",–,51.3,59.8,apparent KD of MS2 coat protein [4]: 36.7 nM
AAAAAACAAGGAUAUACGAAGGAUGGUUAUCUUAAUUUUUGACAUGAGGAUCACCCAUGUAGAAGGUGUUAAAA [JR_Exclusion2_Sub010] (puzzle: Exclusion 2),34.8,–,–,–
GUAUAUAGUGUGAGGAUAUGCUGGUCCUUGGAUCAGCAGAAGGCACAUGAGGAUCACCCAUGUAGUUUAUUAUG [Mat - Exclusion 4 - JL Mod - D8] (puzzle: Brourd's mod of Exclusion 4),20,–,–,–
"GUUAACGUAGGAUAUUAGUACAUGAACAUGAGGAUCACCCAUGUGAGGUAGGUCUUAGAAUAAGAAGGGCGAAGAA [EX5 #28] (Eterna round: R97, puzzle: Exclusion 5)",–,124,124,–
GGUUGGCGAGGAUAUACAUGAGGAUCACCCAUGUGAGAGAAAAAAGUGAGGAAGAAAAGUAGAAGGCGCUGACC [salish99_ex3_r3_048] (puzzle: Exclusion 3),44.6,–,–,apparent KD of MS2 coat protein [1]: 256 nM; apparent KD of MS2 coat protein [3]: 53.9 nM
UUCUUGCAAGGAUAUGAUUUAAGUAACAUGAGGAUCACCCAUGUUUUUCCGUUGUUAUGUUCAGAAGGUGCGUGAU [JR_E5_Sub021] (puzzle: Exclusion 5),54.2,–,–,–
"AGGUCUCGUGUCAGGAUAUAUUUUCUCUGAGCAAGGUAGAAGGGACAUGAGGAUCACCCAUGUCUGAGGAAAAU [Eternabot (L1) Solution 34] (Eterna round: R97, puzzle: Brourd's mod of Exclusion 4)",–,24,19.1,–
"CGUCCACUUGAGGAUCACCCAAGUUAGGAUAUCUCCCAGCUCGCAUGUGCGGUUGGUCAGAGAAGGAACCAGGG [Ravereed] (Eterna round: R97, puzzle: Exclusion 1)",–,49.5,29,–
"UAUUAGCAAGCGAGAUCCCACAUGAGGAUCACCCAUGUAAAGCAUCCAGAAUUACUGGGUGCAAAAGCUCGUCUUAU [Winner reversed engineered 6] (Eterna round: R97, puzzle: Sensor, turn-off variant 1)",–,29.4,31.7,–
CAGUACUGAGGAUAUACAUGAGGAUCACCCAUGUGCCUCAGGUAGGAUACUACCAUUAGUAGAAGGCAGUACUG [Fiskers Ex 3 828 mod 18] (puzzle: Exclusion 3),128,–,–,–
"CCUUAGUCACAGGAUAUGCUCAUCUAAUGAUGAGCAGAAGGGUGAACAUGAGGAUCACCCAUGUUUACCAGGGU [Omei Ex6 E4] (Eterna round: R97, puzzle: Exclusion 6)",–,247,37.1,–
"GGAUGAGGAGUGAGGAUAUCGUGUUCGAAAGAACGUGAGAAGGCACAUGAGGAUCACCCAUGUGAUCCUCAUCG [Omei Ex4B A22] (Eterna round: R97, puzzle: Brourd's mod of Exclusion 4)",–,365,59.6,–
GAUCAACAUGAGGAUCACCCAUGUGAGGAUAUGAUACUAUGUACUUCGGUACAUAGUAUCAGAAGGCAUAUGAA [Ex1-3: 36] (puzzle: Exclusion 1),52,–,–,–
"ACAUGAGGAUCACCCAUGUGACCACAAUGGCUGAUGUAACAACAGGAUAUUCGUGAAUAUCUAACGAAGAAGGGUUAUGACUGG [Deportation 63 - Jieux - Exclusion NG 3] (Eterna round: R96, puzzle: Exclusion NG 3)",–,–,–,apparent KD of MS2 coat protein [4]: 51.4 nM
UUUGUCUGUGUGAGGAUAUACUUUUUUUGGUUUUUGUAGAAGGCACAUGAGGAUCACCCAUGUAUUUUGUUGUG [JR_BME4_Sub016] (puzzle: Brourd's mod of Exclusion 4),31.1,–,–,–
"GGUUGGCGAGGAUAUACAUGAGGAUCACCCAUGUGGUCCUGUAAAAAAAAAAACCUUUGUAGAAGGCGCGGGUC [salish99_ex3_r4_034] (Eterna round: R97, puzzle: Exclusion 3)",–,211,233,–
CUUAGACAUGAGGAUCACCCAUGUGAGGAUAUGAUGCGAUCGUCGAAAGACGAUAGCAUCAGAAGGCACAUAUG [Fiskers Ex 1 - 6] (puzzle: Exclusion 1),132,–,–,–
"AACUGGACAGGAUAUGUUCUUGAGCACUUGAGGAUCACCCAAGUCGUCGAGAACUCAGGCACAGAAGGGUUAAUGA [Bera] (Eterna round: R97, puzzle: Exclusion 5)",–,35.1,17.7,–
AAAAUAAAAGUCAGGAUAUUCCUACAACGACUAAGGAAGAAGGGACAUGAGGAUCACCCAUGUGGUCUUCCGAA [Onesti] (puzzle: Brourd's mod of Exclusion 4),17.8,–,–,apparent KD of MS2 coat protein [1]: 42.5 nM; apparent KD of MS2 coat protein [3]: 15.1 nM
"GCACGAAGUGUAGGAUAUCUGUGCGAUUAGCUCAGAGAAGGACACAUGAGGAUCACCCAUGUGUUCCGCGGAAGCAAUACGUGC [Eli exng1 - 057] (Eterna round: R96, puzzle: Exclusion NG 1)",–,10.7,13.3,apparent KD of MS2 coat protein [4]: 9.73 nM
ACGUAUCAUGUCAGGAUAUAGCUAGCUACGGCUAGCUAGAAGGGACAUGAGGAUCACCCAUGUCAAAGAUACGU (puzzle: Brourd's mod of Exclusion 4),13.2,–,–,–
UUAAUGUGAGGAUAUGGUAAAGAUAGAAUGAUGAAAGAACUCCAGAAGGCACAUGAGGAUCACCCAUGUAGAUG [Mat - Exclusion 4 - Mod of JL - D28] (puzzle: Exclusion 4),30.5,–,–,apparent KD of MS2 coat protein [1]: 68.3 nM; apparent KD of MS2 coat protein [3]: 42 nM
"AACCUGAGGCAAAGCUUUAGGUGUACAUGAGGAUCACCCAUGUAGGAUAUGGUAGGCUUUGCUUACCAGAAGGACAUAAUGAUG [Mat - Exclusion NG 3 - Mod of JL - D46] (Eterna round: R96, puzzle: Exclusion NG 3)",–,92.2,53.3,apparent KD of MS2 coat protein [4]: 42 nM
"AGUACUAACACGAGAGUGUUAGUACUAUAAGCUUGUGUUACAUGAGGAUCACCCAUGUCCUCAUAGGCUCGUCUUAG [Mat - Sensor v3 - Turn-off var 2 - D83] (puzzle: Sensor v3, turn-off variant 2)",42.7,–,–,apparent KD of MS2 coat protein [1]: 80.4 nM; apparent KD of MS2 coat protein [3]: 87.3 nM
"AGUACUAACCCGAAAGUGUUAGUACAAUAAGCUUGUGAAACAUGAGGAUCACCCAUGUCCUCAUAAGCUCGUCUUAU [salish99_TOv2_r3_024] (puzzle: Sensor v3, turn-off variant 2)",766,–,–,apparent KD of MS2 coat protein [1]: 16.7 nM; apparent KD of MS2 coat protein [3]: 15.3 nM
